Assay results as given in the supplement of paper PMC9112550, “Optimization of the antimicrobial peptide Bac7 by deep mutational scanning” (BMC Biology, 2022).

Tested on: Escherichia coli TOP10
Experiment: shrunken log2 fold change of peptide-encoding DNA abundance (4.5 h post-induction vs induction); higher = less antimicrobial activity (less host growth inhibition)
Settings: time post-induction: 4.5 h; library: site-saturation at positions 5, 18, 19, 20
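Also: peptides expressed intracellularly from a pBAD plasmid library in pooled LB shake-flask culture, induced with 0.3% L-arabinose, DNA abundance read by NGS, three biological replicates, DESeq2 with apeglm shrinkage.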

Sequence | shrunken log2 fold change
RRIRWRPPRLPRPRPRPWFKPRP | -0.123
RRIRKRPPRLPRPRPRPVGDPRP | 0.247
RRIRMRPPRLPRPRPRPNIYPRP | -0.124
RRIRPRPPRLPRPRPRPPYIPRP | -0.251
RRIRPRPPRLPRPRPRPAWCPRP | 0.252
RRIRVRPPRLPRPRPRPSEDPRP | 0.376
RRIRHRPPRLPRPRPRPFYVPRP | 2.94
RRIRQRPPRLPRPRPRPCHWPRP | 0.018
RRIRSRPPRLPRPRPRPYRLPRP | -0.279
RRIRARPPRLPRPRPRPAPQPRP | 0.932
RRIRARPPRLPRPRPRPCKLPRP | -0.693
RRIRVRPPRLPRPRPRPMILPRP | -0.0833
RRIRCRPPRLPRPRPRPRHWPRP | 0.261
RRIRWRPPRLPRPRPRPFQSPRP | -0.0153
RRIRCRPPRLPRPRPRPESSPRP | -0.16
RRIRCRPPRLPRPRPRPQYAPRP | -0.231
RRIRPRPPRLPRPRPRPMPAPRP | 0.0935
RRIRHRPPRLPRPRPRPYTPPRP | -1.32
RRIRNRPPRLPRPRPRPGDQPRP | 0.0802
RRIRTRPPRLPRPRPRPPWWPRP | 0.928
RRIRFRPPRLPRPRPRPTGQPRP | 0.0488
RRIRFRPPRLPRPRPRPWCDPRP | -0.329
RRIRRRPPRLPRPRPRPPESPRP | 0.26
RRIRVRPPRLPRPRPRPYTPPRP | -0.645
RRIRCRPPRLPRPRPRPHYYPRP | -1.07

Sequence | shrunken log2 fold change
RRIRIRPPRLPRPRPRPWHSPRP | -0.383
RRIRARPPRLPRPRPRPINDPRP | 0.00287
RRIRNRPPRLPRPRPRPSPNPRP | -0.552
RRIRCRPPRLPRPRPRPWRNPRP | -0.157
RRIRHRPPRLPRPRPRPMTVPRP | 0.055
RRIRFRPPRLPRPRPRPYQNPRP | -0.0547
RRIRGRPPRLPRPRPRPKFMPRP | 0.316
RRIRWRPPRLPRPRPRPMTGPRP | 0.019
RRIRCRPPRLPRPRPRPCWIPRP | -0.464
RRIRARPPRLPRPRPRPNACPRP | -0.175
RRIRGRPPRLPRPRPRPHIVPRP | 0.106
RRIRERPPRLPRPRPRPCRHPRP | -0.00171
RRIRMRPPRLPRPRPRPTIQPRP | 0.318
RRIRCRPPRLPRPRPRPYPIPRP | -0.198
RRIRGRPPRLPRPRPRPHEAPRP | -0.000398
RRIRSRPPRLPRPRPRPLDFPRP | -0.223
RRIRSRPPRLPRPRPRPMTIPRP | -0.0727
RRIRSRPPRLPRPRPRPLYCPRP | -0.523
RRIRQRPPRLPRPRPRPDTKPRP | -0.00171
RRIRSRPPRLPRPRPRPDAIPRP | 0.339
RRIRSRPPRLPRPRPRPGLRPRP | 0.222
RRIRDRPPRLPRPRPRPHSQPRP | -0.0254
RRIRHRPPRLPRPRPRPMFSPRP | -0.256
RRIRRRPPRLPRPRPRPELAPRP | 0.927
RRIRCRPPRLPRPRPRPPFRPRP | 0.377

Sequence | shrunken log2 fold change
RRIRMRPPRLPRPRPRPIHDPRP | 0.0367
RRIRGRPPRLPRPRPRPAFIPRP | -0.177
RRIRIRPPRLPRPRPRPWVCPRP | 0.0551
RRIRKRPPRLPRPRPRPAQLPRP | 0.0282
RRIRARPPRLPRPRPRPKIVPRP | -0.0715
RRIRFRPPRLPRPRPRPTFFPRP | -0.169
RRIRWRPPRLPRPRPRPDIDPRP | 0.546
RRIRGRPPRLPRPRPRPCSTPRP | 1.14
RRIRVRPPRLPRPRPRPVCKPRP | -0.444
RRIRNRPPRLPRPRPRPKTLPRP | -0.134
RRIRHRPPRLPRPRPRPYNNPRP | -0.819
RRIRLRPPRLPRPRPRPLPQPRP | 0.0529
RRIRCRPPRLPRPRPRPKICPRP | -0.0571
RRIRMRPPRLPRPRPRPDSGPRP | -0.01
RRIRCRPPRLPRPRPRPTTNPRP | 0.0115
RRIRDRPPRLPRPRPRPMQFPRP | -0.0264
RRIRPRPPRLPRPRPRPTWKPRP | -0.0108
RRIRHRPPRLPRPRPRPTAWPRP | 0.0946
RRIRPRPPRLPRPRPRPGFQPRP | 0.215
RRIRRRPPRLPRPRPRPCLPPRP | -0.132
RRIRCRPPRLPRPRPRPLKNPRP | -0.208
RRIRNRPPRLPRPRPRPPVIPRP | -0.00994
RRIRCRPPRLPRPRPRPYVGPRP | -0.163
RRIRPRPPRLPRPRPRPQDGPRP | 0.0623
RRIRFRPPRLPRPRPRPELWPRP | 0.677
